Here are results for four sequences from the supplement of paper PMC5998384.

Series [1] has as its system HeLa Kyoto. Nature of the series: solubility in G1/S (NP-40 vs SDS abundance) (log2 ratio); higher = more soluble. The conditions noted are these: cell cycle stage: G1/S.
Series [2] concerns HeLa Kyoto. Nature of the series: melting temperature (median over replicates), in situ; higher = more thermally stable.
For series [3], the system named is HeLa Kyoto. Nature of the series: solubility change mitosis vs G1/S (difference of NP-40 vs SDS log2 ratios) (log2 ratio difference); higher = more soluble in mitosis.
The test system of series [4] is HeLa Kyoto. Nature of the series: thermal stability score vs G1/S (z-score of summed log2 fold changes over temperatures); higher = more thermally stable than in G1/S.
[5] abbreviates: cell cycle stage: early G1 (4.5 h after nocodazole release).
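For melting temperature (median over replicates), in situ in this document: HeLa Kyoto cells synchronized by double thymidine or nocodazole block, proteins quantified by TMT10plex mass spectrometry, three independent biological replicates.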
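For solubility change mitosis vs G1/S (difference of NP-40 vs SDS log2 ratios) in this document: synchronized HeLa Kyoto cells (double thymidine block for G1/S, nocodazole release for mitosis), protein amounts in NP-40 versus SDS lysates quantified by mass spectrometry, three biological replicates.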
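For solubility in G1/S (NP-40 vs SDS abundance) in this document: HeLa Kyoto cells arrested at G1/S by double thymidine block, proteins quantified by TMT10plex mass spectrometry in mild NP-40 versus SDS extracts, three biological replicates.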
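For thermal stability score vs G1/S (z-score of summed log2 fold changes over temperatures) in this document: synchronized HeLa Kyoto cells, proteins quantified by TMT10plex mass spectrometry, three biological replicates, mitosis taken 0.5 h after nocodazole release, G1/S directly after double thymidine block.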

Regarding “MEIIRSNFKSNLHKVYQAIEEADFFAIDGEFSGISDGPSVSALTNGFDTPEERYQKLKKHSMDFLLFQFGLCTFKYDYTDSKYITKSFNFYVFPKPFNRSSPDVKFVCQSSSIDFLASQGFDFNKVFRNGIPYLNQEEERQLREQYDEKRSQANGAGALSYVSPNTSKCPVTIPEDQKKFIDQVVEKIEDLLQSEENKNLDLEPCTGFQRKLIYQTLSWKYPKGIHVETLETEKKERYIVISKVDEEERKRREQQKHAKEQEELNDAVGFSRVIHAIANSGKLVIGHNMLLDVMHTVHQFYCPLPADLSEFKEMTTCVFPRLLDTKLMASTQPFKDIINNTSLAELEKRLKETPFNPPKVESAEGFPSYDTASEQLHEAGYDAYITGLCFISMANYLGSFLSPPKIHVSARSKLIEPFFNKLFLMRVMDIPYLNLEGPDLQPKRDHVLHVTFPKEWKTSDLYQLFSAFGNIQISWIDDTSAFVSLSQPEQVKIAVNTSKYAESYRIQTYAEYMGRKQEEKQIKRKWTEDSWKEADSKRLNPQCIPYTLQNHYYRNNSFTAPSTVGKRNLSPSQEEAGLEDGVSGEISDTELEQTDSCAEPLSEGRKKAKKLKRMKKELSPAGSISKNSPATLFEVPDTW [PARN]”, in series [1], the “solubility in G1/S (log2)” value was -0.144. In addition, the figures for the melting temperature in series [2] (cell cycle stage: G1/S) and in series [2] (cell cycle stage: mitosis) were 48.7 °C and 50.7 °C, respectively. In series [3], the “solubility change mitosis (log2)” value was -0.0471. In addition, the thermal stability score was 1.32 in series [4] (setting [5]) and 2.89 in series [4] (cell cycle stage: mitosis).

For the sequence “MEKARRGGDGVPRGPVLHIVVVGFHHKKGCQVEFSYPPLIPGDGHDSHTLPEEWKYLPFLALPDGAHNYQEDTVFFHLPPRNGNGATVFGISCYRQIEAKALKVRQADITRETVQKSVCVLSKLPLYGLLQAKLQLITHAYFEEKDFSQISILKELYEHMNSSLGGASLEGSQVYLGLSPRDLVLHFRHKVLILFKLILLEKKVLFYISPVNKLVGALMTVLSLFPGMIEHGLSDCSQYRPRKSMSEDGGLQESNPCADDFVSASTADVSHTNLGTIRKVMAGNHGEDAAMKTEEPLFQVEDSSKGQEPNDTNQYLKPPSRPSPDSSESDWETLDPSVLEDPNLKEREQLGSDQTNLFPKDSVPSESLPITVQPQANTGQVVLIPGLISGLEEDQYGMPLAIFTKGYLCLPYMALQQHHLLSDVTVRGFVAGATNILFRQQKHLSDAIVEVEEALIQIHDPELRKLLNPTTADLRFADYLVRHVTENRDDVFLDGTGWEGGDEWIRAQFAVYIHALLAATLQLDNEKILSDYGTTFVTAWKNTHNYRVWNSNKHPALAEINPNHPFQGQYSVSDMKLRFSHSVQNSERGKKIGNVMVTTSRNVVQTGKAVGQSVGGAFSSAKTAMSSWLSTFTTSTSQSLTEPPDEKP [AVL9]”, the “solubility in G1/S (log2)” value in series [1] is 0.0785. For the same sequence, the melting temperature came out at 54.3 °C in series [2] (cell cycle stage: G1/S) and 54.1 °C in series [2] (cell cycle stage: mitosis). In addition, the “solubility change mitosis (log2)” value in series [3] was -0.155. Besides, the thermal stability score in series [4] (setting [5]) came out at 0.365; in series [4] (cell cycle stage: mitosis), 0.676.

Turning to “MEKGLTLPQDCRDFVHSLKMRSKYALFLVFVVIVFVFIEKENKIISRVSDKLKQIPQALADANSTDPALILAENASLLSLSELDSAFSQLQSRLRNLSLQLGVEPAMEAAGEEEEEQRKEEEPPRPAVAGPRRHVLLMATTRTGSSFVGEFFNQQGNIFYLFEPLWHIERTVSFEPGGANAAGSALVYRDVLKQLFLCDLYVLEHFITPLPEDHLTQFMFRRGSSRSLCEDPVCTPFVKKVFEKYHCKNRRCGPLNVTLAAEACRRKEHMALKAVRIRQLEFLQPLAEDPRLDLRVIQLVRDPRAVLASRMVAFAGKYKTWKKWLDDEGQDGLREEEVQRLRGNCESIRLSAELGLRQPAWLRGRYMLVRYEDVARGPLQKAREMYRFAGIPLTPQVEDWIQKNTQAAHDGSGIYSTQKNSSEQFEKWRFSMPFKLAQVVQAACGPAMRLFGYKLARDAAALTNRSVSLLEERGTFWVT [CHST3]”, the “solubility in G1/S (log2)” value in series [1] was 0.15. Also, the figures for the melting temperature in series [2] (cell cycle stage: G1/S) and in series [2] (cell cycle stage: mitosis) were 55.3 °C and 53.5 °C, respectively. Moreover, the “solubility change mitosis (log2)” value in series [3] was -0.0403. In addition, the figures for the thermal stability score in series [4] (setting [5]) and in series [4] (cell cycle stage: mitosis) were -1.54 and -0.213, respectively.

For “MEKRLGVKPNPASWILSGYYWQTSAKWLRSLYLFYTCFCFSVLWLSTDASESRCQQGKTQFGVGLRSGGENHLWLLEGTPSLQSCWAACCQDSACHVFWWLEGMCIQADCSRPQSCRAFRTHSSNSMLVFLKKFQTADDLGFLPEDDVPHLLGLGWNWASWRQSPPRAALRPAVSSSDQQSLIRKLQKRGSPSDVVTPIVTQHSKVNDSNELGGLTTSGSAEVHKAITISSPLTTDLTAELSGGPKNVSVQPEISEGLATTPSTQQVKSSEKTQIAVPQPVAPSYSYATPTPQASFQSTSAPYPVIKELVVSAGESVQITLPKNEVQLNAYVLQEPPKGETYTYDWQLITHPRDYSGEMEGKHSQILKLSKLTPGLYEFKVIVEGQNAHGEGYVNVTVKPEPRKNRPPIAIVSPQFQEISLPTTSTVIDGSQSTDDDKIVQYHWEELKGPLREEKISEDTAILKLSKLVPGNYTFSLTVVDSDGATNSTTANLTVNKAVDYPPVANAGPNQVITLPQNSITLFGNQSTDDHGITSYEWSLSPSSKGKVVEMQGVRTPTLQLSAMQEGDYTYQLTVTDTIGQQATAQVTVIVQPENNKPPQADAGPDKELTLPVDSTTLDGSKSSDDQKIISYLWEKTQGPDGVQLENANSSVATVTGLQVGTYVFTLTVKDERNLQSQSSVNVIVKEEINKPPIAKITGNVVITLPTSTAELDGSKSSDDKGIVSYLWTRDEGSPAAGEVLNHSDHHPILFLSNLVEGTYTFHLKVTDAKGESDTDRTTVEVKPDPRKNNLVEIILDINVSQLTERLKGMFIRQIGVLLGVLDSDIIVQKIQPYTEQSTKMVFFVQNEPPHQIFKGHEVAAMLKSELRKQKADFLIFRALEVNTVTCQLNCSDHGHCDSFTKRCICDPFWMENFIKVQLRDGDSNCEWSVLYVIIATFVIVVALGILSWTVICCCKRQKGKPKRKSKYKILDATDQESLELKPTSRAGIKQKGLLLSSSLMHSESELDSDDAIFTWPDREKGKLLHGQNGSVPNGQTPLKARSPREEIL [KIAA0319L]”, in series [1], the “solubility in G1/S (log2)” value was found to be 0.0342. For the same sequence, the melting temperature turned out to be 58.5 °C in series [2] (cell cycle stage: G1/S) and 56.2 °C in series [2] (cell cycle stage: mitosis). For the same sequence, the “solubility change mitosis (log2)” value in series [3] is 0.0841. In addition, the values for the thermal stability score in series [4] (setting [5]) and in series [4] (cell cycle stage: mitosis) were -3.99 and -5.23, respectively.
